Measured values from US20100311844A1, “Spontaneously Forming Ellipsoidal Phospholipid Unilamellar Vesicles” (priority 2006, published 2010).
“Also recorded” adds a separate entry of the source.

T1: SapC induced membrane fusion (Homo sapiens, UniProt P07602)
T1 sequence (P07602 311-390 limits assumed): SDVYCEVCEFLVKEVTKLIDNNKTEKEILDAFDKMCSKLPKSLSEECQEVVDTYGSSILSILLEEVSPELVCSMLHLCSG


Legend:
[1] = SANS of non-doped, H1-, H2- and SapC-doped DOPS/DPPC/DHPC mixtures (modified Guinier plot, ellipsoidal shell model fit); type: physicochemical; settings: for effect of peptide on bilayer stability: SANS result; for effect of peptide on ULV size and size distribution / effect of peptide on membrane thickness: peptide 62.5 μM
Experimental: For preparation of liposomes containing protein, SapC was over expressed in E. coli cells using the IPTG-inducing pET system, and His-tag proteins were eluted from nickel columns. After dialysis, the proteins were further purified by HPLC chromatography as follows: The C4 reverse phase column was equilibrated with 0.1% trifluoroacetic acid (TFA) for 10 minutes, then the proteins were eluted in a linear (0-100%) gradient of 0.1% TFA in acetonitrile over 60 minutes. The major protein peak was collected and lyophilized, while protein concentrations were determined as described previously. H1 (YCEVCEFLVKEVTKLID) and H2 (EKEILDAF DKMCSKLPK) peptides were synthesized by SynPep Corp. (California, USA) and dissolved in D2O at a concentration of 1.5 mg/mL. The 0.1 wt. % lipid solution with [DOPS]/[DPPC]=10 and ([DPPC]+[DOPS]/DHPC=4 was then added to the two peptide solutions (1.5 mg/mL) at a volume ratio of 12:1, and the SapC solution with a volume ratio of 1:1, yielding a final peptide (or SapC) concentration of 62.5 μM, (molar ratio of [lipid]/[peptide]=22/1) a concentration higher than the SapC required to induce membrane destabilization. A sample containing only 6.25 μM of SapC ([lipid]/[SapC]=220/1) was also prepared for comparison purposes.
To determine the structure and stability of the resulting liposomes, the homogenized 10 wt. % solutions are first progressively diluted into 5, 2, 1, 0.5 and 0.1 wt. % samples. Prior to DLS measurements, the 0.1 wt. % stock lipid samples are diluted 5, 50 and 200 fold, and are analyzed using an N4^+ particle sizer (Coulter, Miami, Fla.). Using this method, it was determined that diluting the system had no effect on the size of the particles. For SANS experiments, the same sample preparation protocol was applied to the [DOPS]/[DPPC]=10 sample except that D2O (99.9%, Chalk River Laboratories, Chalk River, ON), instead of H2O, was used to obtain a sample with a total lipid concentration of 0.5 wt. %. The 0.5 wt. % sample was then further diluted into 0.1 and 0.05 wt. % mixtures using an acidic buffer composed of equal-volumes of 0.1N sodium acetate (NaAc) and 0.1N acetic acid (HAc).
SANS experiments were carried out on the 30 m NG7 SANS instrument located at the National Institute of Standards and Technology (NIST) Center for Neutron Research (NCNR, Gaithersburg, Md., USA). 8.09 Å wavelength (λ) neutrons, a neutron focusing lens and a long sample-to-detector distance (SDD=15.3 m) were used to reach the lowest scattering vectors [q=4π/λ·sin(θ/2), where θ is the scattering angle]. Two other SDD (5 and 1 m) were also used, covering a combined q range from 0.002 to 0.35 Å^−1 for all three SDD. Raw 2-D data were corrected for detector sensitivity, background, empty cell scattering and sample transmission. The corrected data were then circularly averaged, around the beam center, yielding the customary 1-D data. […] The incoherent plateau was determined by averaging the intensity of 10-20 high q data points and then subtracted from the reduced data.
For q>0.06 Å^−1 the differences in intensity among the three data sets (FIG. 2) are indistinguishable. Analysis of a modified Guinier plot^30 (also known as Kratky-Porod plot) applied to all three samples, where ln(I·q^2) has a linear relationship with q^2 in the range between 5×10^−3 and 2.5×10^−2 Å^−2, indicate the existence of a lamellar structure. […] The lines represent the best-fits to the data. The bilayer thickness is then derived from the square root of the slope multiplying by √{square root over (12)}.
The model for a unilamellar tri-axial ellipsoidal vesicle is depicted as an ellipsoidal shell (FIG. 4) with different core lengths along the three prime axes, acore, bcore and ccore (acore≦bcore≦ccore). The shell lengths along the axes, ashell, bshell and cshell, are defined as (acore+l), (bcore+l) and (ccore+l), respectively, where l is the bilayer thickness. […]

[2] = AFM, supported membranes; cited from earlier work
[3] = molecular target: T1, SapC induced membrane fusion; settings: reported by Wang et al.; cited from earlier work

| Molecule | effect of peptide on bilayer stability [1] | effect of peptide on ULV size and size distribution [1] | effect of peptide on membrane thickness [1] | effect on destabilization and restructuring of lipid membranes [2] | inhibition of SapC induced membrane fusion [3] | effect of SapC on ULV ([1]; SapC 6.25 μM, [lipid]/[SapC]=220/1) | effect of SapC on ULV ([1]; SapC 62.5 μM, [lipid]/[SapC]=22/1, acetate D2O buffer) |
| --- | --- | --- | --- | --- | --- | --- | --- |
| EKEILDAFDKMCSKLPK [H2, helical domain peptide of SapC, synthesized by SynPep Corp] | do not destabilize the bilayer morphology | shifts the equilibrium between the two ULV aggregates present | small decreases to the membrane thickness | neither H1 nor H2 alone have significant influence on membrane structure | can inhibit SapC induced membrane fusion |  |  |
| YCEVCEFLVKEVTKLID [H1, helical domain peptide of SapC, synthesized by SynPep Corp] | do not destabilize the bilayer morphology | does not appear to modify ULV size or their size distribution | small decreases to the membrane thickness | neither H1 nor H2 alone have significant influence on membrane structure | can inhibit SapC induced membrane fusion |  |  |
| SapC: human Saposin C, over expressed in E. coli as His-tag protein, HPLC purified (protein, His-tag, human Saposin C, over expressed in E. coli as His-tag protein, HPLC purified) SDVYCEVCEFLVKEVTKLIDNNKTEKEILDAFDKMCSKLPKSLSEECQEVVDTYGSSILSILLEEVSPELVCSMLHLCSG |  |  |  | can destabilize and restructure the acidic membrane |  | ULV structure is unperturbed; also recorded: do not appear to perturb the size of ULV or their membrane structure | promotes aggregation of ULV |
